Results reported in patent publication US20070244108A1.

B1: human hepatic microsomal 11β HSD1 (Homo sapiens) (protein)
chain: MAFMKKYLLPILGLFMAYYYYSANEEFRPEMLQGKKVIVTGASKGIGREMAYHLAKMGAHVVVTARSKETLQKVVSHCLELGAASAHYIAGTMEDMTFAEQFVAQAGKLMGGLDMLILNHITNTSLNLFHDDIHHVRKSMEVNFLSYVVLTVAALPMLKQSNGSIVVVSSLAGKVAYPMVAAYSASKFALDGFFSSIRKEYSVSRVNVSITLCVLGLIDTETAMKAVSGIVHMQAAPKEECALEIIKGGALRQEEVYYDSSLWTTLLIRNPCRKILEFLYSTSYNMDRFINK
B2: Human 11β HSD1 (Homo sapiens) (protein)
chain: B1 chain

Substrate: C[C@]12CCC(=O)C=C1CCC1C2C(=O)C[C@@]2(C)C1CC[C@]2(O)C(=O)CO
Assay: cells, lysate or membranes named

Protein | Km (other: 10 μg microsomal protein, 30 min at 37° C., Buffer 1, TLC assay) [µM] | Km (other: RIA detection, 10 μg/well microsomal protein, 30 min, buffer 3, 37.0 °C) [µM]
B1 | 0.66 | 
B2 |  | 0.7
